Source: US20060193821, “Aptamers to the human IL-12 cytokine family and their use as autoimmune disease therapeutics” (published 2006)

B1: ARC1471 (mixed)
RNA: GGCAAGUAAUUGGGGAGUGCGGGCGGGG
modifications: 2'-OMe C,U and three purines (A7,A8,G15 of ARC979); six PS; 3'-idT [2'-OMe C,U at 3,7,10,11,18,20,24; 2'-OMe purines A4,A5,G12; deoxy A,G elsewhere; PS 8-9,16-17,17-18,18-19,19-20,23-24 (N = PS linkage, left out); 3'-inverted dT at 29]
B2: ARC1621 (mixed)
RNA: ACAGGCAAGUAAUUGGGGAGUGCGGGCGGGGUGU
modifications: 2'-OMe C,U and G16,G17,G24,G25,G30,G31; other A,G deoxy; PS 3-4,4-5; 3'-idT [PS 3-4,4-5; 2'-OMe at 2,6,10,13,14,16,17,21,23,24,25,27,30,31,32,34; other A,G deoxy; 3'-inverted dT at 35]
B3: ARC1460 (mixed)
RNA: B2 RNA
modifications: deoxy A,G; 2'-OMe C,U; PS 24-25; 3'-idT [PS linkage 24-25; 2'-OMe C,U at 2,6,10,13,14,21,23,27,32,34; all A,G 2'-deoxy; 3'-inverted dT at 35]
B4: ARC1457 (mixed)
RNA: B2 RNA
modifications: deoxy A,G; 2'-OMe C,U; PS 16-17; 3'-idT [PS linkage 16-17; 2'-OMe C,U at 2,6,10,13,14,21,23,27,32,34; all A,G 2'-deoxy; 3'-inverted dT at 35]
B5: ARC1461 (mixed)
RNA: B2 RNA
modifications: deoxy A,G; 2'-OMe C,U; PS 25-26; 3'-idT [PS linkage 25-26; 2'-OMe C,U at 2,6,10,13,14,21,23,27,32,34; all A,G 2'-deoxy; 3'-inverted dT at 35]
B6: ARC1463 (mixed)
RNA: B2 RNA
modifications: deoxy A,G; 2'-OMe C,U; PS 30-31; 3'-idT [2'-OMe C,U at 2,6,10,13,14,21,23,27,32,34; deoxy A,G elsewhere; PS 30-31 (N = PS linkage, left out); 3'-inverted dT at 35]
B7: ARC1465 (mixed)
RNA: B2 RNA
modifications: deoxy A,G; 2'-OMe C,U; PS 11-12,19-20,20-21,21-22,22-23,26-27; 3'-idT [2'-OMe C,U at 2,6,10,13,14,21,23,27,32,34; deoxy A,G elsewhere; PS 11-12,19-20,20-21,21-22,22-23,26-27 (N = PS linkage, left out); 3'-inverted dT at 35]
B8: ARC1453 (mixed)
RNA: B2 RNA
modifications: deoxy A,G; 2'-OMe C,U; PS 3-4; 3'-idT [PS linkage 3-4; 2'-OMe C,U at 2,6,10,13,14,21,23,27,32,34; all A,G 2'-deoxy; 3'-inverted dT at 35]
B9: ARC1543 (mixed)
RNA: B2 RNA
modifications: 2'-OMe C,U and A1,A8,G9,A11,G18,A19,G20,G22,G26,G28,G29,G33; other A,G deoxy; 3'-idT

Target: IL-23 (human, p19/p40 heterodimer) (Homo sapiens, UniProt Q9NPF7;P29460 SEQ:20-189,SEQ:23-328)
Assay: filter; DPBS Ca Mg
Conditions: tags: R&D Systems, carrier free
Method: The dot blot binding assay previously described was used to characterize the relative potency of the majority of the aptamers synthesized. For KD determination, chemically synthesized aptamers were purified using denaturing polyacrylamide gel electrophoresis, 5′end labeled with γ-³²P ATP and were tested for direct binding to full human IL-23. An 8 point protein titration was used in the dot blot binding assay (either {100 nM, 30 nM, 10 nM, 3 nM, 1 nM, 300 pM, 100 pM, 0 pM} or {10 nM, 3 nM, 1 nM, 300 pM, 100 pM, 30 pM, 10 pM, 0 pM}) in Dulbecco's PBS (with Mg⁺⁺ and Ca⁺⁺) with 0.1 mg/mL BSA. KD values were calculated by fitting the equation y=(max/(1+K/protein))+yint using KaleidaGraph (KaleidaGraph v. 3.51, Synergy Software). Sequences of the ARC979 derivatives synthesized, purified and assayed for binding to IL-23 as well as the results of the protein binding characterization are tabulated below in Tables 29 and 30.

Sequence of IL-23 (human, p19/p40 heterodimer) (Q9NPF7 20-189, chain 1 of 2): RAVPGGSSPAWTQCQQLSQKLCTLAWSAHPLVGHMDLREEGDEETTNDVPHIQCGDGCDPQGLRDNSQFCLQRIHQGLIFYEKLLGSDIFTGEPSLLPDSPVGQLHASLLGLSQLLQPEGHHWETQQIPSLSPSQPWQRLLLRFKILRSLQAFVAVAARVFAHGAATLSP
Sequence of IL-23 (human, p19/p40 heterodimer) (P29460 23-328, chain 2 of 2): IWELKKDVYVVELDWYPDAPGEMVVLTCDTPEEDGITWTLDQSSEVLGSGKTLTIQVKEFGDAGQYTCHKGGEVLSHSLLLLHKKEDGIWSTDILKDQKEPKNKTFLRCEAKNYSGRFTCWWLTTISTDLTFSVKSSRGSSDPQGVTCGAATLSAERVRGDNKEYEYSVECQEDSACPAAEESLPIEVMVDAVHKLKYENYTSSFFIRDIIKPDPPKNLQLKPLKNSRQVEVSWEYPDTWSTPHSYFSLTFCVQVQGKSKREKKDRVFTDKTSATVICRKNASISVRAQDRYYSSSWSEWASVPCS

Binder	Kd [nM]
B1	23.5
B2	0.5
B3	5.8
ACAGGCAAGUAAUUGGGGAGUGCGGGCGGGGUGU (mixed, 2'-OMe C,U and A8,G9,A11; other A,G deoxy; 3'-idT) [ARC1540]	7.5
B4	3
ACAGGCAAGUAAUUGGGGAGUGCGGGCGGGGUGU (mixed, 2'-OMe C,U and G26; other A,G deoxy; 3'-idT) [ARC1445]	2.8
ACAGGCAAGUAAUUGGGGAGUGCGGGCGGGGUGU (mixed, 2'-OMe C,U and G20; other A,G deoxy; 3'-idT) [ARC1441]	2.7
ACAGGCAAGUAAUUGGGGAGUGCGGGCGGGGUGU (mixed, 2'-OMe C,U and A1,G33; other A,G deoxy; 3'-idT) [ARC1539]	6.6
B5	3.7
ACAGGCAAGUAAUUGGGGAGUGCGGGCGGGGUGU (mixed, 2'-OMe C,U and G18; other A,G deoxy; 3'-idT) [ARC1439]	4.8
B6	3.6
B7	1.3
ACAGGCAAGUAAUUGGGGAGUGCGGGCGGGGUGU (mixed, 2'-OMe C,U and G30; other A,G deoxy; 3'-idT) [ARC1448]	2.3
ACAGGCAAGUAAUUGGGGAGUGCGGGCGGGGUGU (mixed, 2'-OMe C,U and G31; other A,G deoxy; 3'-idT) [ARC1449]	2.6
B8	4.4
ACAGGCAAGUAAUUGGGGAGUGCGGGCGGGGUGU (mixed, 2'-OMe C,U and G18,A19,G20,G22; other A,G deoxy; 3'-idT) [ARC1541]	3.9
ACAGGCAAGUAAUUGGGGAGUGCGGGCGGGGUGU (mixed, 2'-OMe C,U and A12; other A,G deoxy; 3'-idT) [ARC1435]	9.8
ACAGGCAAGUAAUUGGGGAGUGCGGGCGGGGUGU (mixed, 2'-OMe C,U and G9; other A,G deoxy; 3'-idT) [ARC1433]	2.8
ACAGGCAAGUAAUUGGGGAGUGCGGGCGGGGUGU (mixed, 2'-OMe C,U and A19; other A,G deoxy; 3'-idT) [ARC1440]	6.7
ACAGGCAAGUAAUUGGGGAGUGCGGGCGGGGUGU (mixed, 2'-OMe C,U and G28; other A,G deoxy; 3'-idT) [ARC1446]	2.1
ACAGGCAAGUAAUUGGGGAGUGCGGGCGGGGUGU (mixed, 2'-OMe C,U and G29; other A,G deoxy; 3'-idT) [ARC1447]	2.5
B9	5.9
ACAGGCAAGUAAUUGGGGAGUGCGGGCGGGGUGU (mixed, 2'-OMe C,U and A11; other A,G deoxy; 3'-idT) [ARC1434]	3
